{"source": "patent US9539338B2", "about": "“Polymer-based protein engineering methods to rationally tune enzyme activity, pH-dependence and stability” (Carnegie Mellon University, priority 2013, dated 2017)", "biological_target": "T1, Suc-AAPF-pNA (Bos taurus, UniProt P00766)", "T1 construct": "purchased Sigma Aldrich; host or cells: bovine pancreas", "experiment": "Enzyme activity: hydrolysis of Suc-AAPF-pNA at pH 5-10 (native CT, chymotrypsin-pQA conjugates)", "assay_type": "biochemical", "conditions": "0.1 M phosphate buffer", "protocol": "N-Succinyl-Ala-Ala-Pro-Phe p-nitroanilide (0 to 50 μL of 9.60 mM in DMSO) was added to sodium phosphate buffer (990 to 940 μL of 100 mM, pH 5-10). Native CT or conjugates solution (10 μL of 4.0 μM) was added to the substrate solution. The initial rate of hydrolysis of the peptide substrate was monitored by recording the increase in absorption at 412 nm using a UV-VIS spectrometer. The Michaelis-Menten parameters (kcat, KM and kcat/KM) were determined by non-linear curve fitting (using the well known Michaelis-Menten kinetics equation, V=Vmax[S]/KM+[S], […] where [E] is enzyme concentration, [S] is substrate concentration, and V is initial rate of the reaction) of plots of initial rate versus substrate concentration using the Enzfitter software.\nEnzyme activity (kcat), specificity (KM), and productivity (kcat/KM) values were determined for each of the conjugates and native chymotrypsin at 25° C. in 0.1 M phosphate buffer (pH 5-10). Values were determined by monitoring the enzyme catalyzed hydrolysis of Suc-AAPF-pNA. Enzyme concentration for each of the reactions was 39 nM, with substrate concentrations ranging from 0-700 μM. The reaction was monitored for the first 30 seconds after mixing enzyme and substrate."}
{"substance": "α-Chymotrypsin (CT) from bovine pancreas (type II) [Native CT]", "values": [{"measurement": "Km", "setting": "pH 5.0, 25° C.", "result": 184, "unit": "µM"}, {"measurement": "kcat", "setting": "pH 5.0, 25° C.", "result": 2.85, "unit": "s⁻¹"}, {"measurement": "Km", "setting": "pH 6.0, 25° C.", "result": 171, "unit": "µM"}, {"measurement": "kcat", "setting": "pH 6.0, 25° C.", "result": 14.80, "unit": "s⁻¹"}, {"measurement": "Km", "setting": "pH 7.0, 25° C.", "result": 94.3, "unit": "µM"}, {"measurement": "kcat", "setting": "pH 7.0, 25° C.", "result": 26.81, "unit": "s⁻¹"}, {"measurement": "Km", "setting": "pH 8.0, 25° C.", "result": 82.6, "unit": "µM"}, {"measurement": "kcat", "setting": "pH 8.0, 25° C.", "result": 32.00, "unit": "s⁻¹"}, {"measurement": "Km", "setting": "pH 9.0, 25° C.", "result": 123, "unit": "µM"}, {"measurement": "kcat", "setting": "pH 9.0, 25° C.", "result": 33.30, "unit": "s⁻¹"}, {"measurement": "Km", "setting": "pH 10.0, 25° C.", "result": 336, "unit": "µM"}, {"measurement": "kcat", "setting": "pH 10.0, 25° C.", "result": 36.62, "unit": "s⁻¹"}]}
